Measurements from US20240082402A1 (ELPIS BIOPHARMACEUTICALS, published 2024).
Values belong to the binder of their own block, whether it stands above or below them.

Legend:
[1] = target: T1, full-length human CD19 on transfected K562 cells (human, UniProt P15391 20-556); assay: FACS, scFv at 200 nM on CD19 K562 cells, Alexa Fluor 647 anti-His detection, % positive cells
T1 construct: whole, on cells; K562 clone transfected with pCMV6-Entry; also called CD19 K562; CD19/K562; not shown: flag or Myc tag at the C-terminus
T1 sequence (looked up): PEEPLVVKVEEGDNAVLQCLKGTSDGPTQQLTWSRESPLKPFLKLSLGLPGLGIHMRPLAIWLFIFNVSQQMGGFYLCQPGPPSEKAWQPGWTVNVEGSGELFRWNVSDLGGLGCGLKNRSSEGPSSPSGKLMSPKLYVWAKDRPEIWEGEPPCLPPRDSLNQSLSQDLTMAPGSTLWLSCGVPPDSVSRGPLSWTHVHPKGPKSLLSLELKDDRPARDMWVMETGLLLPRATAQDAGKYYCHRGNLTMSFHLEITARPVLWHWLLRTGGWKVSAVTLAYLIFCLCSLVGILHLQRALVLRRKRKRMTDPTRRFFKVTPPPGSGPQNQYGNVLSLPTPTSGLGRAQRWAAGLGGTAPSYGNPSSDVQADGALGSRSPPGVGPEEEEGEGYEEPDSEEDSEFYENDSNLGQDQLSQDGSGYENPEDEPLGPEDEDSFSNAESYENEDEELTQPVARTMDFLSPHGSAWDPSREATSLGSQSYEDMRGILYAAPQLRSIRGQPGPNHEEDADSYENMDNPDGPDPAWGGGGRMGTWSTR
Experimental: Cells were spun down at 1300 rpm for 5 minutes at 4° C. to remove unbound antibodies. Cells were then washed once with 200 iaL of PBS per well. […] Samples were then spun down at 1300 rpm for 5 minutes at 4° C. and washed twice with 200uL of 1×PBS per well. The resultant samples were reconstituted in 200 uL of 1×PBS and read on Attune™ NxT Flow Cytometer.

[2] = target: T2, endogenous CD22 on Raji / Nalm6 cells (also on CD19 knock-out Raji cells) (human, UniProt P20273 20-847); assay: FACS, scFv at 200 nM on Raji and Nalm6 cells, Alexa Fluor 647 anti-His detection, % positive cells
T2 construct: whole, on cells

[3] = target: T3, HIS tagged human CD19 recombinant protein (human, UniProt P15391 20-291, limits assumed); assay: SPR Biacore T200, Fc fusion captured on Protein A chip, His-tagged CD19 as analyte
T3 construct: also called rhCD19; human CD19-HIS tagged protein; not shown: His tag
T3 sequence (looked up): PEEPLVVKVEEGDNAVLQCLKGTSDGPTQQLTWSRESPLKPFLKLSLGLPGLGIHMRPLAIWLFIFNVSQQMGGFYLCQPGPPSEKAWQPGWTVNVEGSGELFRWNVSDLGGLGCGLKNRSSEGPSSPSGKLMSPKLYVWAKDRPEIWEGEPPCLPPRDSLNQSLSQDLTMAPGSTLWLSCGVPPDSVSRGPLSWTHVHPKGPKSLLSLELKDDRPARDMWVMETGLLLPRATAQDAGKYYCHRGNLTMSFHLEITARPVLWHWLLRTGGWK
Experimental: (§1) The assay was run using Biacore™ T200 control software version 2.0. For each cycle, 1 μg/mL of Fc-fusion protein was captured for 60 seconds at flow rate of 10 ul/min on flow cell 2 in 1×HBSP buffer on Protein A sensor chip. 2-fold serial human CD19 or CD22-HIS tagged protein was injected onto both reference flow cell 1 and Fc fusion protein captured flow cell 2 for 150 seconds at flow rate of 30 μl/mins followed by wash for 300 seconds. The flow cells were then regenerated with Glycine pH2 for 60 seconds at flow rate of 30 ul/mins. 8 concentration points from 100-0 nM was assayed per Fc fusion in a 96 well plate. The kinetics of Anti-CD19, CD22, CD22-CD19 binding to CD19 or CD22 protein was analyzed using Biacore™ T200 evaluation software version 3.0. The specific binding response unit was derived from subtraction of binding to reference flow cell-1 from Fc fusion protein captured flow cell-2.

[4] = target: T3, HIS tagged human CD19 recombinant …; assay: ELISA, His-tagged CD19 coated at 2 µg/mL, anti-hFc HRP detection
Experimental: (§2) Briefly, 384 well plate was immobilized with HIS tagged human CD19 or CD22 recombinant protein at final concentration of 2 μg/mL in 1×PBS in total volume of 25μL per well. The plate was incubated overnight at 4° C. followed by blocking with 80μL of superblock per well for 1 hour. […] CD19 or CD22 binding was detected by adding 25 μL of anti-hFc HRP diluted at 1:5000 in 1×PBST. In between each step, the plate was washed 3 times with 1×PBST in a plate washer. The plate was then developed with 20 μL of TMB substrate for 5 mins and stopped by adding 20 μL of 2 N sulfuric acid. The plate was read at OD450 nm (BIOTEK plate reader) and data plotted using GraphPad Prism® 8.1 software. […]

[5] = target: T4, HIS tagged human CD22 recombinant protein (human, UniProt P20273 20-687, limits assumed); assay: SPR Biacore T200, Fc fusion captured on Protein A chip, His-tagged CD22 as analyte
T4 construct: also called rhCD22; human CD22-HIS tagged protein; not shown: His tag
Experimental: as §1

[6] = target: T3, HIS tagged human CD19 recombinant …; assay: ELISA, plate coated with His-tagged human CD19 at 2 ug/mL, anti-hFc HRP detection
Experimental: as §2

[7] = target: T5, endogenous CD19 on Raji / Nalm6 cells (also on CD22 knock-out Raji cells) (human, UniProt P15391 20-556); assay: FACS, scFv-Fc fusion on CD22 knock-out Raji cells (which keep CD19)
T5 construct: whole, on cells
T5 sequence (looked up): T1 sequence (looked up)

[8] = target: T4, HIS tagged human CD22 recombinant …; assay: ELISA, His-tagged CD22 coated at 2 µg/mL, anti-hFc HRP detection
Experimental: as §2

[9] = target: HIS tagged human CD19 recombinant protein (human) (UniProt P15391); assay: SPR Biacore T200, Fc fusion captured on Protein A chip, His-tagged CD19 as analyte
[10] = target: HIS tagged human CD19 recombinant protein (human) (UniProt P15391); assay: ELISA, His-tagged CD19 coated at 2 µg/mL, anti-hFc HRP detection
[11] = target: HIS tagged human CD22 recombinant protein (human) (UniProt P20273); assay: ELISA, His-tagged CD22 coated at 2 µg/mL, anti-hFc HRP detection
[12] = target: HIS tagged human CD22 recombinant protein (human) (UniProt P20273); assay: SPR Biacore T200, Fc fusion captured on Protein A chip, His-tagged CD22 as analyte

B2: anti-CD19 scFv-Fc (Fc fusion, not shown: a dimerising Fc or GST)
chain: QVQLQQWGAGLLKPSETLSLTCAVYGGSFSGYYWTWIRQPPGKGLEWIGEINHGGSSNYNPSLKSRVTISVDTSKKQFSLNLNSVTAADTAVYYCARGLGYRSGWYEVENAFDIWGQGTMVTVSSGGGGSGGGGSGGGGSQPVLTQPPSVSVAPGQTARITCGGNKIESRSVHWYQQKPGQAPVLVVYDDGARPSGIPERLSGSNSGDTATLTISRVEPGDEADYYCQVWDGSSVIFGGGTKLTVL
notes: also called anti-CD19-Fc
Kd [3]: 3.75 nM | koff [3]: 0.000223 s⁻¹ | kon [3]: 59400 M⁻¹ s⁻¹ | EC50 [4]: 9.4 pM

B4: Anti-CD22scFv-CD19scFv-Fc (bispecific antibody, part only; not given: Fc and inter-scFv linker, not shown: a dimerising Fc or GST)
chain, part: EVQLVQSGAEVKKPGASVKVSCKASGYTFTSYGISWVRQAPGQGLEWMGWISAYNGNTNYAQKLQGRVTMTTDTSTSTAYMELRSLRSDDTAVYYCARDYGDPSGDDYWGQGTLVTVSSGGGGSGGGGSGGGGSEIVLTQSPATLSVSPGEGVTLSCRASQSVSSNLAWYQQRPGQAPRLLIYGASIKATDVPDRFSGGGSGTDFTLSISNLQSEDFAVYYCQQYHTWPPVTFGGGTKVEIKQVQLQQWGAGLLKPSETLSLTCAVYGGSFSGYYWTWIRQPPGKGLEWIGEINHGGSSNYNPSLKSRVTISVDTSKKQFSLNLNSVTAADTAVYYCARGLGYRSGWYEVENAFDIWGQGTMVTVSSGGGGSGGGGSGGGGSQPVLTQPPSVSVAPGQTARITCGGNKIESRSVHWYQQKPGQAPVLVVYDDGARPSGIPERLSGSNSGDTATLTISRVEPGDEADYYCQVWDGSSVIFGGGTKLTVL
Kd [9]: 4.37 nM | koff [9]: 0.00025 s⁻¹ | kon [9]: 57200 M⁻¹ s⁻¹ | EC50 [10]: 0.052 nM | EC50 [11]: 0.189 nM | Kd [12]: 3.37 nM | koff [12]: 0.000266 s⁻¹ | kon [12]: 79000 M⁻¹ s⁻¹

Continued, values first:

binding result [1]: no binding (tested: 200 nM) | binding result [2]: binds
B1: EPC-001-2 (scFv)
scFv (VH-linker-VL): QVQLVQSGAEVKRPGASVKVSCKASGYTFTSYGISWVRQAPGQGLEWMGWISAYNGNTNYAQKLQGRVTMTTDTSTSTAYMELRSLRSDDTAVYYCARDPGIAVAGTVDYWGQGTLVTVSSGGGGSGGGGSGGGGSEIVMTQSPATLSVSPGEGVTLSCRASQSVSSNLAWYQQRPGQAPRLLIYGASIKATDVPDRFSGGGSGTDFTLSISNVQSEDFAVYYCQQYHTWTPVTFGGGTKVEIK
notes: also called anti-CD22 monospecific scFv; parental anti-CD22 scFv

Kd [5]: 1.44 nM | koff [5]: 0.000177 s⁻¹ | kon [5]: 122000 M⁻¹ s⁻¹ | binding result [6]: no binding (tested: 25 nM) | binding result [7]: no binding | EC50 [8]: 0.043 nM
B3: anti-CD22 scFv-Fc (Fc fusion, not shown: a dimerising Fc or GST)
chain: EVQLVQSGAEVKKPGASVKVSCKASGYTFTSYGISWVRQAPGQGLEWMGWISAYNGNTNYAQKLQGRVTMTTDTSTSTAYMELRSLRSDDTAVYYCARDYGDPSGDDYWGQGTLVTVSSGGGGSGGGGSGGGGSEIVLTQSPATLSVSPGEGVTLSCRASQSVSSNLAWYQQRPGQAPRLLIYGASIKATDVPDRFSGGGSGTDFTLSISNLQSEDFAVYYCQQYHTWPPVTFGGGTKVEIK
notes: also called Anti-CD22-Fc
